Patent US20160130347A1 (Hoffmann-La Roche, published 2016)

T1: human MCSP(D3 domain)-avi-his (human, UniProt Q6UVK1 1587-2221, limits assumed)
T1 construct: domain: D3 domain; also called hu-MCSP(D3 domain)-avi-his
T1 sequence (looked up): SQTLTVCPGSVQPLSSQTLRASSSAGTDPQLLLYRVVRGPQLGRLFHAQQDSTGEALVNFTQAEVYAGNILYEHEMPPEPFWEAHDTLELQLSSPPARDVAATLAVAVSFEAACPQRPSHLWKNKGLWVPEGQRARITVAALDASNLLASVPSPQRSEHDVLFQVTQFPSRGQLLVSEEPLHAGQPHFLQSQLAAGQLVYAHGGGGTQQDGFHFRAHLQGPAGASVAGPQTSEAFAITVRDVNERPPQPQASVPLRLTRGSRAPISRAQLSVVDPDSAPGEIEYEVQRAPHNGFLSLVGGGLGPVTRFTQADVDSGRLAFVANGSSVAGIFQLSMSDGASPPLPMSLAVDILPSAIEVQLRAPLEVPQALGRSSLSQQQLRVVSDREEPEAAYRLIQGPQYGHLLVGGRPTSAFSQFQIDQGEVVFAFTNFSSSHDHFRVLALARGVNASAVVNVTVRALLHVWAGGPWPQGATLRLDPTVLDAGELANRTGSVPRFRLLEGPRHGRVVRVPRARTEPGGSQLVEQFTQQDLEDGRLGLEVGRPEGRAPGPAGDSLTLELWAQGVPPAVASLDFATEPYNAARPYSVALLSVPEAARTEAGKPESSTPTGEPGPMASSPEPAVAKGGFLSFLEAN


Tests used:
cynomolgus MCSP D3 = target: T2, cynomolgus MCSP D3 (cynomolgus); test: ratio of ProteOn IgG KD against parental M4-3/ML2 IgG
T2 construct: domain: D3; also called Cyno MCSP; cynomolgus homologue
Experimental: (§1) Briefly, carboxymethylated dextran biosensor chips (CM5, GE Healthcare) were activated with N-ethyl-N′-(3-dimethylaminopropyl)-carbodiimide hydrochloride (EDC) and N-hydroxysuccinimide (NHS) according to the supplier's instructions. Anti-human F(ab′)2 fragment specific capture antibody was diluted with 10 mM sodium acetate, pH 5.0 at 50 μg/ml before injection at a flow rate of 10 μl/minute to achieve approximately up to 10.000 response units (RU) of coupled capture antibody. Following the injection of the capture antibody, 1 M ethanolamine is injected to block unreacted groups. For kinetics measurements, Fabs from bacterial supernatant or purified Fabs were injected at a flow rate of 10 ul/minute for 300 s and a dissociation of 300 s for capture baseline stabilization. Capture levels were in the range of 100-500 RU. […] The surface of the sensorchip was regenerated by injection of glycine pH 1.5 for 30 s at 90 ul/min followed by injection of NaOH for 20 s at the same flow rate. Association rates (kon) and dissociation rates (koff) were calculated using a simple one-to-one Langmuir binding model (ProteOn XPR36 Evaluation Software or Scrubber software (BioLogic)) by simultaneously fitting the association and dissociation sensorgrams. The equilibrium dissociation constant (KD) was calculated as the ratio koff/kon.
(§2) Method exactly as described for the Fab fragments, just purified IgG from mammalian production were used.

[1] = target: T1, human MCSP(D3 domain)-avi-his; test: as above
Experimental: as §1, §2

Binder	fold increase over parent (IgG KD, comparative binding affinity) (cynomolgus MCSP D3) [fold]	fold increase over parent (IgG KD, comparative binding affinity) [1] [fold]
M4-3(A7)/ML2 IgG (antibody, V domains shown, Human IgG1 format) VH: QVQLQESGPGLVKPSQTLSLTCTVSGGSITDGYYWNWIRQHPGKGLEWIGYITFDGRNNYNPSLKSRVTISRDTSKNQFSLKLSSVTAADTAVYYCADFDYWGQGTLVTVSS VL: DIQMTQSPSSLSASVGDRVTITCRASQGIRNYLNWYQQKPGKAPKLLIYYTSSLHSGVPSRFSGSGSGTDFTLTISSLQPEDFATYYCQQYSKLPWTFGQGTKVEIK	2	2.5
M4-3(C1)/ML2(C5) IgG (antibody, V domains shown, Human IgG1 format) VH: QVQLQESGPGLVKPSQTLSLTCTVSGGSITSGYYWNWIRQHPGKGLEWIGYITFDGSNNYNPSLKSRVTISRDTSKNQFSLKLSSVTAADTAVYYCADFDYWGQGTLVTVSS VL: DIQMTQSPSSLSASVGDRVTITCRASRGIREYLNWYQQKPGKAPKLLIYYTGSLHSGVPSRFSGSGSGTDFTLTISSLQPEDFATYYCQQYSELPWTFGQGTKVEIK	6.7	10
M4-3(B8)/ML2 IgG (antibody, V domains shown, Human IgG1 format) VH: QVQLQESGPGLVKPSQTLSLTCTVSGGSITSGYYWNWIRQHPGKGLEWIGYITFDGRNNYNPSLKSRVTISRDTSKNQFSLKLSSVTAADTAVYYCADFDYWGQGTLVTVSS VL: DIQMTQSPSSLSASVGDRVTITCRASQGIRNYLNWYQQKPGKAPKLLIYYTSSLHSGVPSRFSGSGSGTDFTLTISSLQPEDFATYYCQQYSKLPWTFGQGTKVEIK	2	2.2
M4-3(C1)/ML2 IgG (antibody, V domains shown, Human IgG1 format) VH: QVQLQESGPGLVKPSQTLSLTCTVSGGSITSGYYWNWIRQHPGKGLEWIGYITFDGSNNYNPSLKSRVTISRDTSKNQFSLKLSSVTAADTAVYYCADFDYWGQGTLVTVSS VL: DIQMTQSPSSLSASVGDRVTITCRASQGIRNYLNWYQQKPGKAPKLLIYYTSSLHSGVPSRFSGSGSGTDFTLTISSLQPEDFATYYCQQYSKLPWTFGQGTKVEIK	2.5	2.2
M4-3(A7)/ML2(E10) IgG (antibody, V domains shown, Human IgG1 format) VH: QVQLQESGPGLVKPSQTLSLTCTVSGGSITDGYYWNWIRQHPGKGLEWIGYITFDGRNNYNPSLKSRVTISRDTSKNQFSLKLSSVTAADTAVYYCADFDYWGQGTLVTVSS VL: DIQMTQSPSSLSASVGDRVTITCRASYGIRGYLNWYQQKPGKAPKLLIYYTSSLHSGVPSRFSGSGSGTDFTLTISSLQPEDFATYHCQQYSKLPWTFGQGTKVEIK	2.9	6.7
M4-3(B7)/ML2 IgG (antibody, V domains shown, Human IgG1 format) VH: QVQLQESGPGLVKPSQTLSLTCTVSGGSITSGYYWNWIRQHPGKGLEWIGYITFDGINNYNPSLKSRVTISRDTSKNQFSLKLSSVTAADTAVYYCADFDYWGQGTLVTVSS VL: DIQMTQSPSSLSASVGDRVTITCRASQGIRNYLNWYQQKPGKAPKLLIYYTSSLHSGVPSRFSGSGSGTDFTLTISSLQPEDFATYYCQQYSKLPWTFGQGTKVEIK	2.9	4
M4-3(A7)/ML2(G3) IgG (antibody, V domains shown, Human IgG1 format) VH: QVQLQESGPGLVKPSQTLSLTCTVSGGSITDGYYWNWIRQHPGKGLEWIGYITFDGRNNYNPSLKSRVTISRDTSKNQFSLKLSSVTAADTAVYYCADFDYWGQGTLVTVSS VL: DIQMTQSPSSLSASVGDRVTITCRASQGIRNYLNWYQQKPGKAPKLLIYYTSSLHSGVPSRFSGSGSGTDYTLTISSLQPEDFATYYCQQYSALPWTFGQGTKVEIK	10	28.6
M4-3(A7)/ML2(C5) IgG (antibody, V domains shown, Human IgG1 format) VH: QVQLQESGPGLVKPSQTLSLTCTVSGGSITDGYYWNWIRQHPGKGLEWIGYITFDGRNNYNPSLKSRVTISRDTSKNQFSLKLSSVTAADTAVYYCADFDYWGQGTLVTVSS VL: DIQMTQSPSSLSASVGDRVTITCRASRGIREYLNWYQQKPGKAPKLLIYYTGSLHSGVPSRFSGSGSGTDFTLTISSLQPEDFATYYCQQYSELPWTFGQGTKVEIK	10	28.6

Other lines, results leading:

fold increase over parent (IgG KD, comparative binding affinity) (cynomolgus MCSP D3) [fold]	fold increase over parent (IgG KD, comparative binding affinity) [1] [fold]	Binder
3.3	4	M4-3(C1)/ML2(E10) IgG (antibody, V domains shown, Human IgG1 format) VH: QVQLQESGPGLVKPSQTLSLTCTVSGGSITSGYYWNWIRQHPGKGLEWIGYITFDGSNNYNPSLKSRVTISRDTSKNQFSLKLSSVTAADTAVYYCADFDYWGQGTLVTVSS VL: DIQMTQSPSSLSASVGDRVTITCRASYGIRGYLNWYQQKPGKAPKLLIYYTSSLHSGVPSRFSGSGSGTDFTLTISSLQPEDFATYHCQQYSKLPWTFGQGTKVEIK
1	2	M4-3/ML2 (E10) IgG (antibody, V domains shown, Human IgG1 format) VH: QVQLQESGPGLVKPSQTLSLTCTVSGGSITSGYYWNWIRQHPGKGLEWIGYITYDGSNNYNPSLKSRVTISRDTSKNQFSLKLSSVTAADTAVYYCADFDYWGQGTLVTVSS VL: DIQMTQSPSSLSASVGDRVTITCRASYGIRGYLNWYQQKPGKAPKLLIYYTSSLHSGVPSRFSGSGSGTDFTLTISSLQPEDFATYHCQQYSKLPWTFGQGTKVEIK
3.3	6.7	M4-3/ML2(G3) IgG (antibody, V domains shown, Human IgG1 format) VH: QVQLQESGPGLVKPSQTLSLTCTVSGGSITSGYYWNWIRQHPGKGLEWIGYITYDGSNNYNPSLKSRVTISRDTSKNQFSLKLSSVTAADTAVYYCADFDYWGQGTLVTVSS VL: DIQMTQSPSSLSASVGDRVTITCRASQGIRNYLNWYQQKPGKAPKLLIYYTSSLHSGVPSRFSGSGSGTDYTLTISSLQPEDFATYYCQQYSALPWTFGQGTKVEIK
2	5	M4-3(D6)/ML2 IgG (antibody, V domains shown, Human IgG1 format) VH: QVQLQESGPGLVKPSQTLSLTCTVSGGSITSGYYWNWIRQHPGKGLEWIGYITFDGKNNYNPSLKSRVTISRDTSKNQFSLKLSSVTAADTAVYYCADFDYWGQGTLVTVSS VL: DIQMTQSPSSLSASVGDRVTITCRASQGIRNYLNWYQQKPGKAPKLLIYYTSSLHSGVPSRFSGSGSGTDFTLTISSLQPEDFATYYCQQYSKLPWTFGQGTKVEIK
2	5	M4-3/ML2 (C5) IgG (antibody, V domains shown, Human IgG1 format) VH: QVQLQESGPGLVKPSQTLSLTCTVSGGSITSGYYWNWIRQHPGKGLEWIGYITYDGSNNYNPSLKSRVTISRDTSKNQFSLKLSSVTAADTAVYYCADFDYWGQGTLVTVSS VL: DIQMTQSPSSLSASVGDRVTITCRASRGIREYLNWYQQKPGKAPKLLIYYTGSLHSGVPSRFSGSGSGTDFTLTISSLQPEDFATYYCQQYSELPWTFGQGTKVEIK
2	2.9	M4-3/ML2 (C5/G3) IgG (antibody, V domains shown, Human IgG1 format; also called MCSP ML2(C5-G3)) VH: QVQLQESGPGLVKPSQTLSLTCTVSGGSITSGYYWNWIRQHPGKGLEWIGYITYDGSNNYNPSLKSRVTISRDTSKNQFSLKLSSVTAADTAVYYCADFDYWGQGTLVTVSS VL: DIQMTQSPSSLSASVGDRVTITCRASRGIREYLNWYQQKPGKAPKLLIYYTGSLHSGVPSRFSGSGSGTDFTLTISSLQPEDFATYYCQQYSALPWTFGQGTKVEIK
2.2	5	M4-3/ML2 (E10/G3) IgG (antibody, V domains shown, Human IgG1 format; also called MCSP ML2(E10-G3)) VH: QVQLQESGPGLVKPSQTLSLTCTVSGGSITSGYYWNWIRQHPGKGLEWIGYITYDGSNNYNPSLKSRVTISRDTSKNQFSLKLSSVTAADTAVYYCADFDYWGQGTLVTVSS VL: DIQMTQSPSSLSASVGDRVTITCRASYGIRGYLNWYQQKPGKAPKLLIYYTSSLHSGVPSRFSGSGSGTDFTLTISSLQPEDFATYHCQQYSALPWTFGQGTKVEIK
